By stoichiometry N is commonly meant a count of units in the complex or per binding partner.

The values below come from article PMC8113879, “Molecular properties of human guanylate cyclase–activating protein 2 (GCAP2) and its retinal dystrophy–associated variant G157R” (The Journal of Biological Chemistry, 2021).

Numbering of substitutions follows the chain as printed. Names may count otherwise.

For one series, the target named is GCAP2 (Bos taurus) (UniProt P51177). In words: sedimentation equilibrium. Particulars: cited from earlier work.
Series [1] concerns the molecule itself. The experiment in a line: MALDI-TOF MS; 1.0 mg/ml protein in 20 mM Tris HCl pH 7.5, 150 mM KCl, 1 mM DTT, desalted by ZipTip C4, sinapinic acid matrix; dimer peaks beside the monomer peak.
Series [2] deals with the molecule itself. The experiment in a line: SEC; analytical SEC, Superose 12 10/300GL, 20 mM Tris HCl pH 7.5, 150 mM KCl, 1 mM DTT, 500 uM EGTA + 1 mM Mg2+ (no Ca2+), 25 C; ~40 uM protein or 5-80 uM for the titration; apparent KD from a hyperbolic fit of apparent mass against concentration; monomer to dimer.
Series [3] concerns the molecule itself. In words: SEC; analytical SEC, Superose 12 10/300GL, 20 mM Tris HCl pH 7.5, 150 mM KCl, 1 mM DTT, 1 mM Mg2+ + 500 uM Ca2+, 25 C; ~40 uM protein or 5-80 uM for the titration; apparent KD from a hyperbolic fit of apparent mass against concentration; monomer to dimer. (In gel filtration, larger molecules generally elute earlier.)

Sequence of GCAP2 (Bos taurus) (P51177 2-204): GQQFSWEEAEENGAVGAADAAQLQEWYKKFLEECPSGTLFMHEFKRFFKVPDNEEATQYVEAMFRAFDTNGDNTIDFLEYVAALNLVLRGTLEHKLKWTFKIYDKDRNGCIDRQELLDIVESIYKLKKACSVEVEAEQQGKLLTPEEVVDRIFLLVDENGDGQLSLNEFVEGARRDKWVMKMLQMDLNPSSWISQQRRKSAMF

Consider GCAP2 (from UniProt P51177), for which the Kd in the series with GCAP2 (Bos taurus) was 52 µM.

B1: nonmyristoylated human guanylate cyclase-activating protein 2 (natural protein, UniProt Q9UMX6 1-200, looked up)
chain: MGQEFSWEEAEAAGEIDVAELQEWYKKFVMECPSGTLFMHEFKRFFKVTDDEEASQYVEGMFRAFDKNGDNTIDFLEYVAALNLVLRGTLEHKLKWTFKIYDKDGNGCIDRLELLNIVEGIYQLKKACRRELQTEQGQLLTPEEVVDRIFLLVDENGDGQLSLNEFVEGARRDKWVMKMLQMDMNPSSWLAQQRRKSAMF
notes: cDNA cloned into pET-11a(+) with NdeI and NheI; No tag is mentioned; also called nmGCAP2; nonmyristoylated GCAP2
On to B1, for which the “stoichiometry N” value in series [1] came to 2.

B2: myristoylated human GCAP2 G157R variant (natural protein, UniProt Q9UMX6 1-200, looked up)
chain: B1 chain with G157R
modifications: myristic acid covalently bound to the N-terminal Gly
notes: The variant occurs in patients (Japanese families with retinitis pigmentosa); also called G157R GCAP2; IRD-associated G157R variant
On to B2, for which the “stoichiometry N” value in series [1] came to 2.

B3: myristoylated human guanylate cyclase-activating protein 2 (natural protein, UniProt Q9UMX6 1-200, looked up)
chain: B1 chain
modifications: myristic acid covalently bound to the N-terminal Gly
notes: cDNA cloned into pET-11a(+) with NdeI and NheI; Myristoylation was confirmed by MALDI-TOF (difference of 212.2 Da to nmGCAP2); Surmised: the first methionine is removed so that Gly2 is the myristoylated N-terminus; also called mGCAP2; myristoylated GCAP2
Consider B3, for which the “stoichiometry N” value in series [1] amounted to 2. Besides, the Kd in series [2] is less than 1 µM; in series [3], 55.4 µM.
